From PMC10374969, “SVCT2/SLC23A2 is a sodium-dependent urate transporter: functional properties and practical application” (The Journal of Biological Chemistry, 2023) come the findings set out here.

The subject of data set [1] is T1, O=c1[nH]c(=O)c2[nH]c(=O)[nH]c2[nH]1.
T1 construct: full-length wild type, 650 aa, C-terminal EGFP tag (pEGFP-N1), transiently expressed in HEK293 cells
The experiment in a line: cells, lysate or membranes. The class given is cell-based, Homo sapiens. To be noted: pH 10, Na+ Krebs-Ringer buffer, 37 °C, 5 min, 0-3 mM urate (not saturated), labelled compound.

The test system of data set [2] is T2, O=c1[nH]c(=O)c2[nH]c(=O)[nH]c2[nH]1.
T2 construct: full-length, 648 aa, C-terminal EGFP tag (pEGFP-N1), transiently expressed in HEK293 cells
The experiment in a line: cells, lysate or membranes. As to conditions: pH 10, Na+ Krebs-Ringer buffer, 37 °C, 5 min, 0-3 mM urate (not saturated), labelled compound. The format is cell-based, Mus musculus.

As a reminder, the Km is the substrate concentration at which the rate is half of its maximum. Consider “human SVCT2 (SVCT2/SLC23A2) (Homo sapiens)”, for which the Km in data set [1] amounted to 3.86 mM. With “mouse Svct2 (Svct2/Slc23a2) (Mus musculus)”, the Km in data set [2] was found to be 3.16 mM.
